The source of these data is patent publication US20260015434A1, “ANTIBODY MATERIALS AND METHODS TARGETING MICROBIAL POLYSACCHARIDES” (priority 2022, published 2026).

One experiment deals with TG10 binding to PNAG 0. Put plainly: Monosaccharide inhibition of antibody binding on the array. The protocol: (§1) This example describes how TG10 binding is inhibited by glucosamine. For small molecule inhibition assays, arrays were blocked and washed as previously described. Antibodies F598 and TG10 were diluted to 5 μg/mL in binding buffer. 20 mM N-Acetyl glucosamine and 20 mM glucosamine in binding buffer was prepared and an equal volume of the monosaccharide solutions were added to the diluted antibodies. Antibody/monosaccharide samples were incubated at room temperature for 30 min with rotation prior to being applied to the array. For the TG10 glucosamine IC50 inhibition assay, TG10 was diluted to 30 nM in binding buffer. A pH adjusted 1M stock of Glucosamine.HCl in PBS with 3% BSA (pH 7.2) was prepared and a serial dilution in binding buffer was made. Equal volumes of TG10 and each of the serial diluted glucosamine stocks was combined. Antibody/monosaccharide samples were incubated at RT for 30 min with rotation prior to being applied to the array.
(§2) Monosaccharide inhibition of both TG10 and F598 was studied on the array. The antibodies were incubated with 10 mM glucosamine, galactosamine, N-acetyl glucosamine, and N-acetyl galactosamine and then applied to the array. The binding of TG10 with PNAG 0 and of F598 with PNAG 31 were analyzed with and without monosaccharide inhibitors (FIGS. 5A-5D). Glucosamine had the greatest effect on TG10 binding to PNAG 0, reducing signal intensity by 94% at 10 mM […] (100% at 100 mM […]). As expected, N-acetyl glucosamine inhibited F598 binding with PNAG 31, reducing RFU by 74% at 10 mM GlcNAc and 99% at 100 mM GlcNAc. […] To further illuminate the small molecule inhibition properties of glucosamine on TG10, IC50 values for glucosamine was determined by titrating GlcNH2 with TG10.

Experiment [1] deals with F598 binding with PNAG 31. Described as above. The protocol:
as §1, §2

Experiment [2] has as its target TG10 binding to PNAG 0, PNAG 1, and PNAG 16. As to the kind of experiment: TG10 glucosamine IC50 inhibition assay on the array. To be noted: three best binding conjugates on the array (PNAG 0, PNAG 1, PNAG 16); TG10 diluted to 30 nM. The protocol: as §1
Monosaccharide inhibition of both TG10 and F598 was studied on the array. […] The binding of TG10 with PNAG 0 and of F598 with PNAG 31 were analyzed with and without monosaccharide inhibitors (FIGS. 5A-5D). […] To further illuminate the small molecule inhibition properties of glucosamine on TG10, IC50 values for glucosamine was determined by titrating GlcNH2 with TG10.

The next experiment concerns S. epidermidis biofilms. As to the kind of experiment: S. epidermidis biofilm staining, confocal microscopy. The class given is cell-based, Staphylococcus epidermidis. Particulars: fluorescently labeled antibodies at 5 μg/ml, fixed 20 hr biofilms. The protocol:
For antibody labeling, recombinantly expressed antibodies were labeled with fluorescent dyes using Invitrogen antibody dye labeling kits. Concentration and labeling efficiency was confirmed using nanodrop. For S. epidermidis biofilm formation and confocal microscopy, Staphylococcus epidermidis (Winslow and Winslow) Evans ATCC 14990 was resuspended and cultured on tryptic soy broth agar plates according to ATCC recommended procedures. Single colonies were picked into 5 mL Tryptic Soy Broth (TSB) supplemented with 0.25% glucose (BD™ TSB) and bacteria were cultured overnight at 37 C with shaking (200 RPM). The overnight culture was diluted 1:100 into aerated TSB26. 400 μl (microliters) of the aerated culture was pipetted into 8-well chambered coverglass lab-tek II system suitable for confocal microscopy. Biofilms were allowed to mature for 20 hrs @37C without agitation. Mature films were washed 2×500 μl PBS to remove planktonic bacteria. The films were fixed in 4% paraformaldehyde in PBS for 30 minutes, washed 2×500 μl PBS and stained with fluorescently labeled antibodies diluted to 5 μg/ml. The labeled films were then washed 2×500 μl PBS and then stained for 10 minutes with Hoechst stain @ 10 μg/ml. The films were washed a final time and kept under PBS for imaging. […]

Experiment [3] has as its target PNAG 0 (fully deacetylated glucosamine pentasaccharide conjugate). Put plainly: Glycan microarray binding / apparent KD. The protocol:
(§3) Neoglycoprotein (NGP) microarray fabrication was performed as follows. Several NGP microarrays were constructed as previously described. Two large arrays (8 duplicate arrays per slide) composed of 815 and 870 neoglycoproteins, glycoproteins, glycopeptide conjugates, and controls were constructed and used for the experiments in this report. Additionally, a PNAG-focused array (16 duplicates per slide) with 49 array components was fabricated and used to determine apparent KD values. Array component parent stocks were diluted to 125-200 μg/mL into print buffer (1×PBS buffer with 2.5% (v/v) glycerol, 0.0005% (v/v) Triton-X 100, 0.0005 μg/mL soluble print dye 0.05 μg/mL Atto 532 (Sigma 06699). Formulated components were printed in duplicate onto 2D-Epoxy functionalized glass slides (Poly-An #104-00-221) or SuperEpoxy 2 microarray slides (ArrayIt) using an Arrayit NanoPrint LM60 arrayer at 60% humidity. Following the print, slides were scanned in a microarray fluorescence scanner (Innopsys, InnoScan 1100 AL) to validate that array components were successfully deposited onto the slide surface. Binding profiles for a representative set of lectins and antibodies were used as QC for each printed microarray batch. The printed NGP microarrays were stored under vacuum at −20° C.
(§4) Antibody selectivity and apparent KD were determined using a NGP microarray. A pre-assay scan was performed to control for missing features. Selectivity and affinity of most mAbs were measured on the full array. A focused array was used to acquire an apparent KD measurement. A slide module (8 well for full array and 16-well for focused array) was mounted onto each slide and blocking buffer (3% BSA in PBS, pH 7.4) was applied to each well of the array. Blocking was performed overnight at 4° C. mAbs were serial diluted in binding buffer (1% BSA in PBST, pH 7.4). Following the block, wells were washed 4× with wash buffer (PBST, PBS with 0.05% tween-20). Primary mAb incubation was performed for 2.5 hours at 37° C. The wells were washed 5× with wash buffer. A CY3-labeled secondary antibody specific for the Fc portion of human IgG was diluted 500 fold into binding buffer and added to each array well (Jackson ImmunoResearch, 109-165-098). Secondary mAb incubation was performed for 1.5 hours at 37° C. Wells were washed 5× with wash buffer. Slides were removed from the slide module and submerged in wash buffer for 5 minutes. Washed slides were dried by centrifugation @ 1000×g in a centrifuge quipped with a swing bucket rotor. Fluorescent scans were obtained at multiple PMT values to maximize dynamic range. Raw data was analyzed using GenePix 7.0 software as previously described. Selectivity profiles and apparent KD curves were plotted in excel and Graphpad Prism. Apparent Kos were determined using one-site specific binding algorithm in Graphpad Prism.

Another experiment deals with S. aureus ATCC 29213. As to the kind of experiment: Passive immunization, S. aureus lethal dose challenge in a murine model. The class given is in vivo, Balb/C mice. Particulars: 200 μg mAb intraperitoneally one hour before 200 million cfu via tail vein. The protocol: An in vivo study was performed to evaluate the prophylactic efficacy of TG10 against a S. aureus lethal dose challenge in a murine model of infection. TG10 and F598 were evaluated as monotherapies and as a mAb cocktail. […] The combination provided 90% survival.
Balb/C mice aged 12 weeks (n=10/group) were passively immunized with 200 μg F598, 200μ g TG10, or 100μ g F598+100μ g TG10 in 100 μl PBS intraperitoneally. 100 μl PBS was injected intraperitoneally in the negative control group (n=5). One hour later, 200 million cfu S. aureus ATCC 29213 cells were administrated via tail vein. Mice condition was monitored. A mouse unable to move or which lost more than 20% body mass was euthanized. Survival was better in all three groups when compared to the PBS control arm.

The next experiment deals with S. aureus Xen 36 cells. As to the kind of experiment: Binding to planktonic S. aureus, fluorescence microscopy. The class given is cell-based. To be noted: labeled mAb, 20 μg/mL, fixed planktonic cells. The protocol: (§5) TG10 binding was evaluated in the PNAG producing strains of S. aureus ATCC 29213 and Xen 36 following overnight culturing with shaking in TSB and TB, respectively. The cells were pelleted, fixed in 4% paraformaldehyde and coated on glass chips. The plated cells were extensively washed followed by incubation with 488-labeled TG10 or 488-labeled F598 prior fluorescent microscopy. For evaluating TG10 and F598 binding with S. aureus, S. aureus […] and Xen 36 were grown in TSB and LB overnight, respectively. Cells were pelleted and fixed in 4% paraformaldehyde. Cells were calibrated to OD 0.5. 100 μl suspension were used for each sample. Each sample were pelleted and resuspended in 20 μg/mL mAb TG10, F598 or both. After shaking for 2 hours under ambient temperature, cells were pelleted, washed and transferred to glass chips and allowed to air dry. A cover slide was mounted via anti-fade media.

Experiment [4] has as its system S. aureus ATCC 29213 cells. Described as above. The format is cell-based. Particulars: labeled mAb, 20 μg/mL, fixed planktonic cells. The protocol:
as §5

Experiment [5] concerns the target PNAG 16 (glucosamine tetrasaccharide with an N-acetyl glucosamine at the terminal end). Put plainly: Glycan microarray apparent KD. Particulars: PNAG 16 conjugate on the microarray. The format is binding. The protocol: as §3, with “Binding profiles for a representative set of lectins and antibodies were used as QC for each printed microarray batch. The printed NGP microarrays were stored under vacuum at −20° C.” left out
(§6) Antibody selectivity and apparent KD were determined using a NGP microarray. […] Selectivity and affinity of most mAbs were measured on the full array. […] Raw data was analyzed using GenePix 7.0 software as previously described. […]

Experiment [6] has as its target PNAG 1 (glucosamine tetrasaccharide with an N-acetyl glucosamine at the reducing end). As to the kind of experiment: Glycan microarray apparent KD. The format is binding. Particulars: PNAG 1 conjugate on the microarray. The protocol: as §3, with “Binding profiles for a representative set of lectins and antibodies were used as QC for each printed microarray batch. The printed NGP microarrays were stored under vacuum at −20° C.” left out
as §6

In experiment [7] the test system is Staphylococcus epidermidis (ATCC 35984) suspension culture. Put plainly: Labeled antibody incubation with suspension cultures of microorganisms. To be noted: Alexa Fluor 488 labeled TG10; data not shown. The format is cell-based.
Experiment [8] concerns PNAG conjugates on the array (dPNAG, PNAG and intermediate levels of deacetylation). As to the kind of experiment: Neoglycoprotein (glycan) microarray binding, 816-component array. To be noted: for PNAG Binding on Array: ability to bind both dPNAG and PNAG and intermediate levels of deacetylation.
Experiment [9] shares this test system. The description is as above. To be noted: single point mutations. The protocol:
as §3, §4

In the case of `CC(=O)N[C@H]1C(O)O[C@H](CO)[C@H](O)[C@@H]1O` (stereo partly shown) [N-acetyl galactosamine], the “reduction of signal intensity of TG10 binding to PNAG 0” value (“reduction … to PNAG 0” for short) in the experiment on TG10 binding to PNAG 0 (10 mM monosaccharide) was “unchanged”.
For `CC(=O)N[C@H]1C(O)O[C@H](CO)[C@@H](O)[C@@H]1O` (stereo partly shown) [N-acetyl glucosamine], the “reduction of RFU of F598 binding with PNAG 31” value in experiment [1] (10 mM monosaccharide) came out at 74%; in experiment [1] (100 mM monosaccharide), 99%. The “reduction … to PNAG 0” value with TG10 binding to PNAG 0 (10 mM monosaccharide) stood at 15%.
Consider `N[C@H]1C(O)O[C@H](CO)[C@H](O)[C@@H]1O` (stereo partly shown) [galactosamine], for which, in the experiment with TG10 binding to PNAG 0 (10 mM monosaccharide), the “reduction … to PNAG 0” value was determined as 45%.
As to `N[C@H]1C(O)O[C@H](CO)[C@@H](O)[C@@H]1O` (stereo partly shown) [glucosamine], the half-maximal inhibitory concentration (IC50) in [2] is 1000 to 2000 µM. For the same molecule, the “reduction … to PNAG 0” value in the experiment on TG10 binding to PNAG 0 (10 mM monosaccharide) is reported as 94%; in the experiment on TG10 binding to PNAG 0 (100 mM monosaccharide), 100%.

B1: TG10: Antibody, HC SEQ ID NO: 3, LC SEQ ID NO: 12; primer mutations in ADI-45379 reverted to germline (antibody, V domains shown)
VH: EVQLVESGGGLVQPGGSLRLSCAVSGFPFSSYWMSWVRQAPGKGLEWVANIKEDGSEKYYVDSVKGRFTISRDNAKNSLYLQMNSLRAEDTAVYYCATDPDVGLSDSWGQGTLVTVSS
VL: EIVLTQSPGTLSLSPGDRATHSCRASQSVSRSYLAWYQQKPGQTPRLFIYGASNRATGIPDRFSGSGSGTYFTLTISRLEPEDFAVYYCQQYDSAPDTFGQGTRLEIK
modifications: TG10 Heavy Chain Variable Region; TG10 Light Chain Variable Region
notes: primer mutations in ADI-45379 reverted to germline
For B1, the “localization of labeled antibody within the biofilm” value with S. epidermidis biofilms was “isolated to core cells within the microcolonies”. Further, the Kd in experiment [3] (PNAG 0 conjugate on the microarray) stood at 0.0083 µM; in experiment [5] it was 0.019 µM; in experiment [6], 0.0115 µM. Also, the “apparent KD” value in [3] (PNAG 0 conjugate on the microarray, given in mass concentration) was 1.25 µg/mL. In addition, the “survival compared to the PBS control group” value in the experiment on S. aureus ATCC 29213 is “increased survival”. In addition, the binding to cells result (in the experiment on S. aureus Xen 36 cells; in experiment [4]) was “bound” each time. Also, in experiment [7], the “fluorescent microscopy of spun-down culture” value is reported as “strong fluorescent signal”. Further, in [8] (816-component array), the “selectivity among PNAG glycoconjugates on the array” value was “excellent selectivity for the highly deacetylated PNAG conjugates PNAG 0 and PNAG 1”. The “PNAG Binding on Array” value in experiment [8] is reported as “Yes”.

B2: TG10 LC D116A: TG10 HC (SEQ ID NO: 3) with TG10 LC D116A (SEQ ID NO: 49) (antibody, V domains shown)
VH: EVQLVESGGGLVQPGGSLRLSCAVSGFPFSSYWMSWVRQAPGKGLEWVANIKEDGSEKYYVDSVKGRFTISRDNAKNSLYLQMNSLRAEDTAVYYCATDPDVGLSDSWGQGTLVTVSS
VL: EIVLTQSPGTLSLSPGDRATHSCRASQSVSRSYLAWYQQKPGQTPRLFIYGASNRATGIPDRFSGSGSGTYFTLTISRLEPEDFAVYYCQQYDSAPATFGQGTRLEIK
modifications: TG10 Heavy Chain Variable Region; Site directed mutatation of TG10 HC Variable Region
Take B2: in [3] (fully deacetylated PNAG conjugate PNAG 0), the “effect of single point mutation on binding between TG10 and PNAG 0” value is “completely removed binding”. The “function of TG10 variant (binding to PNAG conjugates on the array)” value in experiment [9] was “functionally dead”. Besides, in experiment [8], the “PNAG Binding on Array” value is “No”.
